# Results as given in patent US9266964.
# B1: M29-D10 (Fab, V domains shown)
# VH: EVQLLESGGGLVQPGGSLRLSCAASGFTFSWYPMYWVRQAPGKGLEWVSSIGSSGGPTPYADSVKGRFTISRDNSKNTLYLQMNSLRAEDTAVYYCARWADYGGSLDYWGQGTLVTVSS
# VL: DIQMTQSPSSLSASVGDTVSITCRASQSITIYLNWYQHKPGKAPNLLIYGASNLHSGVPSRFSGSGSGTDFTLTISSLQPEDFATYYCQQSYDTPLTFGGGTKVEIK
# notes: Fab fragment (E. coli TG1); printed HC runs into the start of CH1
# B2: M27-G04 (Fab, V domains shown)
# VH: EVQLLESGGGLVQPGGSLRLSCAASGFTFSAYYMVWVRQAPGKGLEWVSYISPSGGQTQYADSVKGRFTISRDNSKNTLYLQMNSLRAEDTAVYYCAREAISSSSFDYWGQGTLVTVSS
# VL: DIQMTQSPSSLSASVGDRVTITCRASQRISYYLTWYQQKPGKVPKLLIYAASSLESGVPSRFSGSGSGTDFTLTISNLQPEDFATYYCQQAFSTPFTFGGGTKVEIK
# notes: as for B1
# B3: M27-F11 (Fab, V domains shown)
# VH: EVQLLESGGGLVQPGGSLRLSCAASGFTFSSYHMMWVRQAPGKGLEWVSSIYPSGGATMYADSVKGRFTISRDNSKNTLYLQMNSLRAEDTAMYYCARDGYHYGDYTYFQHWGQGTLVTVSS
# VL: DIQMTQSPSFLSASVGDRVTITCRASQGISSYLAWYQQKPGKAPKLLIYAASSLQSGVPSRFSGSGSGTDFTLTISSLQPEDFATYYCQQSYNTLRTFGPGTKVDLK
# notes: as for B1
# B4: M76-F02 (Fab, V domains shown)
# VH: EVQLLESGGGLVQPGGSLRLSCAASGFTFSLYDMNWVRQAPGKGLEWVSGISPSGGQTMYADSVKGRFTISRDNSKNTLYLQMNSLRAEDTAVYYCARQPMISAFDIWGQGTMVTVSS
# VL: DIQMTQSPSSLSASVGDRVTITCRASQTIDNYLHWYQQKPGKAPKVLIHDASSLQSGVPPRFSGSGSGTDFTLTISSLQPEDFATYYCQQSYDTPQYTFGQGTKLEIK
# notes: as for B1
# B5: M29-G08 (Fab, V domains shown)
# VH: EVQLLESGGGLVQPGGSLRLSCAASGFTFSYYHMWWVRQAPGKGLEWVSGISPSGGFTFYADSVKGRFTISRDNSKNTLYLQMNSLRAEDTAVYYCARDYYYDSSGYSPLGYWGQGTLVTVSS
# VL: DIQMTQSPATLSASPGETVTLSCRASQNIGNDVAWYRQRPGQAPRLLIHHASTRAYGIPARLRGSGSATEFTLTITSLEPEDFAIYYCQQFYDWPAHTFALGTRLEIKR
# notes: as for B1
# B6: M74-A07 (Fab, V domains shown)
# VH: EVQLLESGGGLVQPGGSLRLSCAASGFTFSQYLMMWVRQAPGKGLEWVSSIYPSGGYTSYADSVKGRFTISRDNSKNTLYLQMNSLRAEDTAVYYCARVSTAVADNDYWGQGTLVTVSS
# VL: DIQMTQSPSSLSASVRDRVTITCRTSQNINTYLNWYYQAPGRAPKLLIFGVSSLHRGVSSRFSGSGDGTEFTLTISSLQPEDIGTYFCQQSYSSPWTFGQGTKVEIK
# notes: as for B1
# B7: M27-G09 (Fab, V domains shown)
# VH: EVQLLESGGGLVQPGGSLRLSCAASGFTFSEYDMAWVRQAPGKGLEWVSYIVSSGGFTSYADSVKGRFTISRDNSKNTLYLQMNSLRAEDTAVYYCTTWAGWIAAADYWGQGTLVTVSS
# VL: DIQMTQSPSSVSASVGDRITITCRTRQSISNYLNWYQQKPGEPPKLLIFAASSLQSGVPSRFSGSGTGTEFTLTISSLQPEDLAIYYCQQSYDIPFTFGQGTKLEIK
# notes: as for B1
# B8: M28-D02 (Fab, V domains shown)
# VH: EVQLLESGGGLVQPGGSLRLSCAASGFTFSWYPMQWVRQAPGKGLEWVSYIYPSGGGTDYADSVKGRFTISRDNSKNTLYLQMNSLRAEDTATYYCATSSGWLGDAFDIWGQGTMVTVSS
# VL: DIQMTQSPSSLSASEGDMVTITCRTSRRIGTYLNWYQQKPGKAPKLLIYGASSLQSGVPSRFSGSGSGTDFTLTVSSLQPEDVGTYYCQQSFSSPWTFGPGTKVEIK
# notes: Fab fragment (E. coli TG1); printed HC runs into the start of CH1; The LC is printed with an amber codon 'q' (QDIqMTQ), written here as Q
# B9: M76-H02 (Fab, V domains shown)
# VH: EVQLLESGGGLVQPGGSLRLSCAASGFTFSMYWMQWVRQAPGKGLEWVSYIYPSGGPTKYADSVKGRFTISRDNSKNTLYLQMNSLRAEDTAVYYCARPSGSYGDAFDIWGQGTMVTVSS
# VL: DIQMTQSPSSLSASEGDRVTITCRASQDISVYLNWYQMKSGKAPKLLIYGGASLQSGVPARFSGSGYGTDFTLTITDLRPEDFATYYCQQSYSLPFTFGGGTKVEIK
# notes: as for B1
# B10: M28-E11 (Fab, V domains shown)
# VH: EVQLLESGGGLVQPGGSLRLSCAASGFTFSLYDMTWVRQAPGKGLEWVSGISSSGGVTIYADSVKGRFTISRDNSKNTLYLQMNSLRAEDTAVYYCARTYYYDSSGYADAFDIWGQGTMVTVSS
# VL: DIQMTQSPSSVSASVGDRVTINCRASQDISNWLAWYQQKPGKAPNLLIYAASSLQTGAPSRFSGSGSGTDFTLTISSLQPEDFGTYVCQQSYSLPWTFGLGTKVEVR
# notes: as for B1
# B11: M28-D12 (Fab, V domains shown)
# VH: EVQLLESGGGLVQPGGSLRLSCAASGFTFSWYTMHWVRQAPGKGLEWVSVIYPSGGPTSYADSVKGRFTISRDNSKNTLYLQMNSLRAEDTATYYCARDGSGSYLGFDYWGQGTLVTVSS
# VL: DIQMTQSPSSLSASVGDRVTITCRASQSIATYLNWYQQKPGRAPKLLIYAASSLQSGVPSRFVGGGSGSGTHFTLTISSLQPEDFATYYCQQSYSTRETFGQGTKVEIK
# notes: as for B1
# B12: M27-H10 (Fab, V domains shown)
# VH: EVQLLESGGGLVQPGGSLRLSCAASGFTFSAYQMAWVRQAPGKGLEWVSVIYSSGGYTDYADSVKGRFTISRDNSKNTLYLQMNSLRAEDTAVYYCARHNWNDGAFDIWGQGTMVTVSS
# VL: DIQMTQSPSSLSASVGDRVTITCRASQSISNYLNWYQQKPGKAPKFLIYAASSLQSGVPSRFSGSGSGTDFTLSISSLQPEDFATYYCQQSYSTPQTFGQGTKVEMK
# notes: as for B1
# B13: M76-G06 (Fab, V domains shown)
# VH: EVQLLESGGGLVQPGGSLRLSCAASGFTFSGYIMHWVRQAPGKGLEWVSWIYPSGGWTEYADSVKGRFTISRDNSKNTLYLQMNSLRAEDTAVYYCARDAPGVGAIDYWGQGTLVTVSS
# VL: DIQMTQSPSSLSASVRDRVTITCRASQSISTYLNWYQQKPGEAPKLLVFAASSLQSGVPSRFSGSGSGTDFTLSISSLQPEDFATYYCQQSYSTPHTFGQGAKVEIK
# notes: as for B1
# B14: M28-E01 (Fab, V domains shown)
# VH: EVQLLESGGGLVQPGGSLRLSCAASGFTFSSYPMGWVRQAPGKGLEWVSRISSSGGMTIYADSVKGRFTISRDNSKNTLYLQMNSLRAEDTAVYYCARDDWNVGMDVWGQGTTVTVSS
# VL: DIQMTQSPSSLSASVGDRVTITCRASQSISSYLNWYQQKPGKAPKLLIYAASSLQSGVPSKFSGSGSGTDYTLTISSLQPEDFATYYCQQTYTTPWTFGQGTKVEIK
# notes: as for B1
# B15: M29-C07 (Fab, V domains shown)
# VH: EVQLLESGGGLVQPGGSLRLSCAASGFTFSGYDMMWVRQAPGKGLEWVSVISSSGGNTAYADSVKGRFTISRDNSKNTLYLQMNSLRAEDTAVYYCARESSGLYYFDYWGQGTLVTVSS
# VL: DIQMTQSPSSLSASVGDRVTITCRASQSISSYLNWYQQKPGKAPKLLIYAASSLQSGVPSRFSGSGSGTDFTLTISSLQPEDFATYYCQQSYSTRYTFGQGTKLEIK
# notes: as for B1
# B16: M29-G10 (Fab, V domains shown)
# VH: EVQLLESGGGLVQPGGSLRLSCAASGFTFSFYKMIWVRQAPGKGLEWVSSISSSGGSTQYADSVKGRFTISRDNSKNTLYLQMNSLRAEDTAVYYCARDRVDLGYLDYWGQGTLVTVSS
# VL: DIQMTQSPSSLSSSVGDSATITCRASQSISIYLNWYQQKPGKAPKILIYGASQLESGVPSRFSGSGSGTDFTLTVSGLQPEDFATYWCQQSYNVPYTFGQGTKLEIK
# notes: as for B1
# B17: M27-G01 (Fab, V domains shown)
# VH: EVQLLESGGGLVQPGGSLRLSCAASGFTFSLYRMFWVRQAPGKGLEWVSSIWSSGGPTMYADSVKGRFTISRDNSKNTLYLQMNSLRAEDTAVYYCAREYPSTYYFDYWGQGTLVTVSS
# VL: DIQMTQSPSSLSASVGDRVTITCRASQSISTYLNWYQQKPGKAPKLLIYGASSLQSGVPSRFSGSGSGTDFTLTISSLQPEDFTIYYCQQSYSDPYTFGQGTKLDIK
# notes: as for B1
# B18: M76-G02 (Fab, V domains shown)
# VH: EVQLLESGGGLVQPGGSLRLSCAASGFTFSLYAMWWVRQAPGKGLEWVSYISSSGGFTSYADSVKGRFTISRDNSKNTLYLQMNSLRAEDTAVYYCARYRVGVAATDYWGQGTLVTVSS
# VL: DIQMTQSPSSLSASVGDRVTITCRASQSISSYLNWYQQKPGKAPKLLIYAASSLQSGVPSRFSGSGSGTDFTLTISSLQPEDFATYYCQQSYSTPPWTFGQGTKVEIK
# notes: as for B1
# B19: M28-C03 (Fab, V domains shown)
# VH: EVQLLESGGGLVQPGGSLRLSCAASGFTFSYYQMGWVRQAPGKGLEWVSSIYPSGGMTDYADSVKGRFTISRDNSKNTLYLQMNSLRAEDTAVYYCTRGSPWGDDAFDIWGQGTMVTVSS
# VL: DIQMTQSPSSLSASVGDRVTITCRASQSINFYLNWYQQKPGKAPKLLIYVASSLESGVPSRFSGSASGTEFTLTISSLQPEDFATYYCLQSYSAPYTFGQGTKVEIT
# notes: as for B1
# B20: M28-A01 (Fab, V domains shown)
# VH: EVQLLESGGGLVQPGGSLRLSCAASGFTFSWYAMHWVRQAPGKGLEWVSGIYSSGGYTKYADSVKGRFTISRDNSKNTLYLQMNSLRAEDTAVYYCARDLSNGDDVFDIWGQGTMVTVSS
# VL: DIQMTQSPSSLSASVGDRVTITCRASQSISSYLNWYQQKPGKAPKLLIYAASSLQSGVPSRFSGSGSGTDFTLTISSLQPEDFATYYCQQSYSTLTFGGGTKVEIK
# notes: as for B1
# B21: M28-F07 (Fab, V domains shown)
# VH: EVQLLESGGGLVQPGGSLRLSCAASGFTFSDYTMYWVRQAPGKGLEWVSSIVPSGGHTLYADSVKGRFTISRDNSKNTLYLQMNSLRAEDTAVYYCAKDHLSSWYGGFFDYWGQGTLVTVSS
# VL: DIQMTQSPSSVSASVGDRVTITCRASQGISSWLAWYQQKPGKAPKLLIYATSGLQSGVPSRFSGSGSGTDFTLTISSLQPEDFATYYCQQAKSFPLTFGGGTRVEIK
# notes: as for B1
# Target: T1, human plasma kallikrein (human, UniProt P03952 20-390; P03952 391-638)
# T1 construct: two disulfide-linked chains; also called pKal; human pKal
# Test: ELISA; signal on coated biotinylated human plasma kallikrein divided by signal on streptavidin; Fab
# Source text: Abbreviations used: "T/B" is the ELISA signal obtained using of the target (biotinylated plasma kallikrein) divided by the ELISA signal of the "background" (streptavidin); both of which were coated on microtiter plates. "nd" is not determined. The symbol "q" refers to the amber suppressible stop codon (TAG), which is translated as glutamine (Q) in strains of E. coli such as the TG1 cells that were used to express the Fab fragments.
# T1 sequence (P03952 20-390, chain 1 of 2): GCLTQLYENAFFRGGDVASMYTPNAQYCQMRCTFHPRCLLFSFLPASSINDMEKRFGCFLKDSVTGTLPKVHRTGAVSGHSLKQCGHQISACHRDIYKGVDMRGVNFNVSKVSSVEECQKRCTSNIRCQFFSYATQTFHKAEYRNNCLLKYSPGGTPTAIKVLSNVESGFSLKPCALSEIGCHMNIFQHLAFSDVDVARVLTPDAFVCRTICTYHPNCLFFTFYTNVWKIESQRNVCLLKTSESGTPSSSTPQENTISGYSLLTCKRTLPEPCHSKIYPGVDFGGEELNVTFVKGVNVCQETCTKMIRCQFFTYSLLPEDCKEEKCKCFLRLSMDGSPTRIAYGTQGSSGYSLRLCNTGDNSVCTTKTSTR
# T1 sequence (P03952 391-638, chain 2 of 2): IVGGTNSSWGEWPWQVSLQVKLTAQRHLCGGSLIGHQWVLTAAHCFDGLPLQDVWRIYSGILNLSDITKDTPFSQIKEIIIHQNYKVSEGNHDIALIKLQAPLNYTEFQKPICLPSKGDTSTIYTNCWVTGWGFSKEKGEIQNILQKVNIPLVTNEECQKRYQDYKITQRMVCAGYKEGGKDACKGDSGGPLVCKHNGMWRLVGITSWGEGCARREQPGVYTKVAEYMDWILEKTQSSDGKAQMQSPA
row,Human pKal ELISA (T/B),Binder
1,23.6 T/B (target signal / background signal),B1
2,4.1 T/B (target signal / background signal),B2
3,10 T/B (target signal / background signal),B3
4,6.4 T/B (target signal / background signal),B4
5,40.4 T/B (target signal / background signal),B5
6,8.6 T/B (target signal / background signal),B6
7,2.2 T/B (target signal / background signal),B7
8,3.7 T/B (target signal / background signal),B8
9,13.4 T/B (target signal / background signal),B9
10,29.3 T/B (target signal / background signal),B10
11,41.6 T/B (target signal / background signal),B11
12,12.4 T/B (target signal / background signal),B12
13,11.8 T/B (target signal / background signal),B13
14,41 T/B (target signal / background signal),B14
15,5.2 T/B (target signal / background signal),B15
16,16.4 T/B (target signal / background signal),B16
17,31.4 T/B (target signal / background signal),B17
18,10.3 T/B (target signal / background signal),B18
19,2.2 T/B (target signal / background signal),B19
20,19 T/B (target signal / background signal),B20
21,33 T/B (target signal / background signal),B21
